Measured values: patent publication US20250283063, “NOVEL CRISPR-CAS12I SYSTEMS AND USES THEREOF” (HUIDAGENE THERAPEUTICS (SINGAPORE) PTE. LTD., published 2025)
Changes are numbered by the printed parent chain.

Legend:
[1] = target: T1, Cas12Max (xCas12i-N243R, v1.1) (N243R); assay: cell_activity; PAM TTTG; OT-1; conditions: tags: NLS
T1 chain: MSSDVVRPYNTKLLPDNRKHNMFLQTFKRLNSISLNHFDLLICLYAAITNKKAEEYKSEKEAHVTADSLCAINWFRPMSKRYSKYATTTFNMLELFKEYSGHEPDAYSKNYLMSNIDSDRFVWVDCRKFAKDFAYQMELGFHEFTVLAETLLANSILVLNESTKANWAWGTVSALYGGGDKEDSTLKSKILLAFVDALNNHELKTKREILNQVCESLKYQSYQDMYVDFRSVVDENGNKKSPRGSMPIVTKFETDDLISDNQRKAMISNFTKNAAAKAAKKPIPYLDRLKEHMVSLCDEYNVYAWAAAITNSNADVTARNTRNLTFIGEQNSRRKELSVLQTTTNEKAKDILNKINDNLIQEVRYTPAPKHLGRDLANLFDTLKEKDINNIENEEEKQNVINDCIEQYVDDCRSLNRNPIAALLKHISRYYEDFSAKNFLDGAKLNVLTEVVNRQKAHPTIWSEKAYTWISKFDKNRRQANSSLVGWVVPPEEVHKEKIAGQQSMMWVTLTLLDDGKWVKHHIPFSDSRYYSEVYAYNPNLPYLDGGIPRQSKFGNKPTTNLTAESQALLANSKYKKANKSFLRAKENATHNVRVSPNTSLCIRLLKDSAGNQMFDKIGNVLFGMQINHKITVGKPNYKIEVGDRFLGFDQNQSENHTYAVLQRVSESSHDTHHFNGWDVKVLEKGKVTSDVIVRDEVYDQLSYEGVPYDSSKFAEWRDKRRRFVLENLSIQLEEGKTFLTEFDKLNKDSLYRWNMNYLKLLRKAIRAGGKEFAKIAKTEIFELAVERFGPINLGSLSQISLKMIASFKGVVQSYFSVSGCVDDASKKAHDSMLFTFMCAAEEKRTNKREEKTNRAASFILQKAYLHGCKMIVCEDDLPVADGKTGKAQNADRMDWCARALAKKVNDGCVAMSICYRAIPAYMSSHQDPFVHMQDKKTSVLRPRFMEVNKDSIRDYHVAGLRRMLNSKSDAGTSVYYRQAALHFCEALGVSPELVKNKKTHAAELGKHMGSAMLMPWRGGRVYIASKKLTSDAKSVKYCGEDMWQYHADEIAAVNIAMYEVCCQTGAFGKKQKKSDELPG
Procedure: (§1) HEK293T cells were cultured in 24-well tissue culture plates according to standard methods for 12 hours, before the reporter and expression plasmids were co-transfected into the cells using standard polyethyleneimine (PEI) transfection. The transfected cells were then cultured at 37° C. under 5% CO₂ for 48 hours. Then the cultured cells were analyzed by flow cytometry for BFP, EGFP, and mCherry fluorescent signals. A “blank” control group was also set up, where only the reporter plasmid was transfected, and no expression plasmid was introduced.
(§2) A dual plasmid fluorescent reporter system for evaluation of off-target dsDNA cleavage activity (off-target reporter system; referring to “Off-Target Reporter” in FIG. 1B) was established, which was similar to the dual plasmid fluorescent reporter system in Example 6 for evaluation of (on-target) dsDNA cleavage activity, except that the insertion sequence of the EGxxxxFP coding sequence contains an TTR off-target protospacer sequence (one of SEQ ID NOs: 127-129) containing one or more mismatches (bold, underlined) with a TTR-targeting spacer sequence (SEQ ID NO: 130) in the gRNA, rather than containing a TTR on-target protospacer sequence (SEQ ID NO: 130; which is the same as SEQ ID NO: 107 in Example 5); DR-T1 sequence (SEQ ID NO: 451) was used. To save drafting, the on-target protospacer sequence/spacer sequence in Table 7 refer to both the protospacer sequence (a DNA sequence) and the corresponding spacer sequence (an RNA sequence) with any “T” in the sequence when referring to a protospacer sequences standing for “T” and when referring to a such spacer sequence standing for “U”, although the assigned SEQ ID NO: 130 in the sequence listing is annotated as DNA.

[2] = target: T2, xCas12i v5.3 (N243R,D892R); assay: cell_activity; PAM TTTG; OT-1; conditions: tags: NLS
T2 chain: T1 chain with D892R
Procedure: as §1, §2

B1: TTR.2 crRNA ; TTR OT.1 (ssRNA ; dsDNA)
RNA: AUGACUCAGAAAUGUGUCCCCAGUUGACACUAGAAGGGAUAUACAAAGUGGA
DNA 1: TTTGTAGAAGGGATATAGAAAGTATC
DNA 2: GATACTTTCTATATCCCTTCTACAAA
Question: Which results are given for B1?
Answer: activity [1]: 60.2%; activity [2]: 6.66%
